In patent US20250320302A1 (EVOTEC INTERNATIONAL, published 2025):

Experiments:
[1] = target: T1, human type I IFN receptor on HEK-Blue IFN-α/β cells (human, UniProt P17181 28-557; P48551 27-515); assay: cell-based or functional assay
T1 sequence (looked up) 1: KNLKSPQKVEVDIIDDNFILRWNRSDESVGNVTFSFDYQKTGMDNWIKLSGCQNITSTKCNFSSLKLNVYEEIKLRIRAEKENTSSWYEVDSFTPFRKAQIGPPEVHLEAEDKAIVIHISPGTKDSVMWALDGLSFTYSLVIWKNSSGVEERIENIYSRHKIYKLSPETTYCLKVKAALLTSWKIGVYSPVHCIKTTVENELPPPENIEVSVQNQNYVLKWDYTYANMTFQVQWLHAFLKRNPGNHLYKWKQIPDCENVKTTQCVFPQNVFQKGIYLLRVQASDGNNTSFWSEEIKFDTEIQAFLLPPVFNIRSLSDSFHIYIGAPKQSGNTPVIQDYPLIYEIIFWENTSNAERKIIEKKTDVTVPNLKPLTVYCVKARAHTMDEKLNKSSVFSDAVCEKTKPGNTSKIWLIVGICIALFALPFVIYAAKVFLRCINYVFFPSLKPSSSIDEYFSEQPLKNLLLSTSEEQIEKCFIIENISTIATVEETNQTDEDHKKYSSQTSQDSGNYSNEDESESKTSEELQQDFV
T1 sequence (looked up) 2: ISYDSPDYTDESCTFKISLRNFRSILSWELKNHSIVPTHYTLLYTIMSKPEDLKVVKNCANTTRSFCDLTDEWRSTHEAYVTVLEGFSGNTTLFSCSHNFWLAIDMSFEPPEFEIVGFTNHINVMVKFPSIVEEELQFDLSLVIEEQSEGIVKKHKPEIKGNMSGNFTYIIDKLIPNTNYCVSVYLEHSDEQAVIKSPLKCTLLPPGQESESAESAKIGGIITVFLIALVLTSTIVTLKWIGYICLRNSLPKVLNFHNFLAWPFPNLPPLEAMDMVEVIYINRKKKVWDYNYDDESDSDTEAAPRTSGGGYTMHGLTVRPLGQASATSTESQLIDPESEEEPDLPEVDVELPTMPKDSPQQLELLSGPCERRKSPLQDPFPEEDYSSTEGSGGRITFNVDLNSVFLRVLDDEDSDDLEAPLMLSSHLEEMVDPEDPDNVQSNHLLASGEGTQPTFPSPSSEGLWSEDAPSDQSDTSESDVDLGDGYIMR

human CD40 = human CD40 (human, UniProt P25942 21-277); assay: cell-based or functional assay
human CD40, sequence (P25942 21-277): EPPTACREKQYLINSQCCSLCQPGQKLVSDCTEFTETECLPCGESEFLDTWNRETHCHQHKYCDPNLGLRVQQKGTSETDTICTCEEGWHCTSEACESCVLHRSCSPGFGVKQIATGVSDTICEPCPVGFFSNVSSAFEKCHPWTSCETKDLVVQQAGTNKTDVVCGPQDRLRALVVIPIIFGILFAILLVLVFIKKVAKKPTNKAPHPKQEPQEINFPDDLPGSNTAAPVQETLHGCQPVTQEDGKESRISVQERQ

Binder	IFNβ EC50 (HEK-Blue IFN-α/β SEAP reporter cells) [1] [ng/mL]	CD40 EC50 (HEK-Blue CD40L NFκB-SEAP reporter cells) (human CD40) [ng/mL]	IFNε EC50 (HEK-Blue IFN-α/β SEAP reporter cells) [1] [ng/mL]
IFA19 (antibody, human IgG2, kappa) light: DIQMTQSPSSVSASVGDRVTITCRASQGIYSWLAWYQQKPGKAPNLLIYTASTLQSGVPSRFSGSGSGTDFTLTISSLQPEDFATYYCQQANIFPLTFGGGTKVEIKRTVAAPSVFIFPPSDEQLKSGTASVVCLLNNFYPREAKVQWKVDNALQSGNSQESVTEQDSKDSTYSLSSTLTLSKADYEKHKVYACEVTHQGLSSPVTKSFNRGECSGGTSGSTSGTGSMSYNLLGFLQRSSNFQSQKLLWQLNGRLEYCLKDRMNFDIPEEIKQLQQFQKEDAALTIYEMLQNIFAIFRQDSSSTGWNETIVENLLANVYHQINHLKTVLEEKLEKEDFTRGKLMSSLHLKRYYGRILHYLKAKEYSHCAWTIVRVEILRNFYFINRLTGYLRN heavy: not shown	1.3	110	–
IFA10 (antibody, human IgG2, kappa) heavy: not shown light: DIQMTQSPSSVSASVGDRVTITCRASQGIYSWLAWYQQKPGKAPNLLIYTASTLQSGVPSRFSGSGSGTDFTLTISSLQPEDFATYYCQQANIFPLTFGGGTKVEIKRTVAAPSVFIFPPSDEQLKSGTASVVCLLNNFYPREAKVQWKVDNALQSGNSQESVTEQDSKDSTYSLSSTLTLSKADYEKHKVYACEVTHQGLSSPVTKSFNRGEC	4.5	26.5	–
IFA9 (antibody, human IgG2, kappa) heavy: not shown light: DIQMTQSPSSVSASVGDRVTITCRASQGIYSWLAWYQQKPGKAPNLLIYTASTLQSGVPSRFSGSGSGTDFTLTISSLQPEDFATYYCQQANIFPLTFGGGTKVEIKRTVAAPSVFIFPPSDEQLKSGTASVVCLLNNFYPREAKVQWKVDNALQSGNSQESVTEQDSKDSTYSLSSTLTLSKADYEKHKVYACEVTHQGLSSPVTKSFNRGEC	0.7	42.6	–
IFA49 (antibody, human IgG2, kappa) heavy: not shown light: DIQMTQSPSSVSASVGDRVTITCRASQGIYSWLAWYQQKPGKAPNLLIYTASTLQSGVPSRFSGSGSGTDFTLTISSLQPEDFATYYCQQANIFPLTFGGGTKVEIKRTVAAPSVFIFPPSDEQLKSGTASVVCLLNNFYPREAKVQWKVDNALQSGNSQESVTEQDSKDSTYSLSSTLTLSKADYEKHKVYACEVTHQGLSSPVTKSFNRGEC	–	65.8	78.2
IFA11 (antibody, human IgG2, kappa) heavy: not shown light: DIQMTQSPSSVSASVGDRVTITCRASQGIYSWLAWYQQKPGKAPNLLIYTASTLQSGVPSRFSGSGSGTDFTLTISSLQPEDFATYYCQQANIFPLTFGGGTKVEIKRTVAAPSVFIFPPSDEQLKSGTASVVCLLNNFYPREAKVQWKVDNALQSGNSQESVTEQDSKDSTYSLSSTLTLSKADYEKHKVYACEVTHQGLSSPVTKSFNRGEC	1.78	42.8	–
IFA8 (antibody, human IgG2, kappa) heavy: not shown light: DIQMTQSPSSVSASVGDRVTITCRASQGIYSWLAWYQQKPGKAPNLLIYTASTLQSGVPSRFSGSGSGTDFTLTISSLQPEDFATYYCQQANIFPLTFGGGTKVEIKRTVAAPSVFIFPPSDEQLKSGTASVVCLLNNFYPREAKVQWKVDNALQSGNSQESVTEQDSKDSTYSLSSTLTLSKADYEKHKVYACEVTHQGLSSPVTKSFNRGEC	2.9	39.7	–
IFA126 (antibody, human IgG2, kappa) light: DIQMTQSPSSVSASVGDRVTITCRASQGIYSWLAWYQQKPGKAPNLLIYTASTLQSGVPSRFSGSGSGTDFTLTISSLQPEDFATYYCQQANIFPLTFGGGTKVEIKRTVAAPSVFIFPPSDEQLKSGTASVVCLLNNFYPREAKVQWKVDNALQSGNSQESVTEQDSKDSTYSLSSTLTLSKADYEKHKVYACEVTHQGLSSPVTKSFNRGECGGGGSGGGGSGGGGSMSYNLLGFLQRSSNFQSQKLLWQLNGRLEYCLKDRMNFDIPEEIKQLQQFQKEDAALTIYEMLQNIFAIFRQDSSSTGWNETIVENLLANVYHQINHLKTVLEEKLEKEDFTRGKLMSSLHLKRYYGRILHYLKAKEYSHCAWTIVRVEILRNFYFINRLTGYLRN heavy: not shown	2.08	364	–
IFA1 (antibody, human IgG2, kappa) light: DIQMTQSPSSVSASVGDRVTITCRASQGIYSWLAWYQQKPGKAPNLLIYTASTLQSGVPSRFSGSGSGTDFTLTISSLQPEDFATYYCQQANIFPLTFGGGTKVEIKRTVAAPSVFIFPPSDEQLKSGTASVVCLLNNFYPREAKVQWKVDNALQSGNSQESVTEQDSKDSTYSLSSTLTLSKADYEKHKVYACEVTHQGLSSPVTKSFNRGECAEAAAKEAAAKAMSYNLLGFLQRSSNFQCQKLLWQLNGRLEYCLKDRMNFDIPEEIKQLQQFQKEDAALTIYEMLQNIFAIFRQDSSSTGWNETIVENLLANVYHQINHLKTVLEEKLEKEDFTRGKLMSSLHLKRYYGRILHYLKAKEYSHCAWTIVRVEILRNFYFINRLTGYLRN heavy: not shown	1.64	74.1	–
IFA2 (antibody, human IgG2, kappa) light: DIQMTQSPSSVSASVGDRVTITCRASQGIYSWLAWYQQKPGKAPNLLIYTASTLQSGVPSRFSGSGSGTDFTLTISSLQPEDFATYYCQQANIFPLTFGGGTKVEIKRTVAAPSVFIFPPSDEQLKSGTASVVCLLNNFYPREAKVQWKVDNALQSGNSQESVTEQDSKDSTYSLSSTLTLSKADYEKHKVYACEVTHQGLSSPVTKSFNRGECAEAAAKEAAAKAMSYNLLGFLQRSSNFQSQKLLWQLNGRLEYCLKDRMNFDIPEEIKQLQQFQKEDAALTIYEMLQNIFAIFRQDSSSTGWNETIVENLLANVYHQINHLKTVLEEKLEKEDFTRGKLMSSLHLKRYYGRILHYLKAKEYSHCAWTIVRVEILRNFYFINRLTGYLRN heavy: not shown	0.14	111	–
IFA20 (antibody, human IgG2, kappa) light: DIQMTQSPSSVSASVGDRVTITCRASQGIYSWLAWYQQKPGKAPNLLIYTASTLQSGVPSRFSGSGSGTDFTLTISSLQPEDFATYYCQQANIFPLTFGGGTKVEIKRTVAAPSVFIFPPSDEQLKSGTASVVCLLNNFYPREAKVQWKVDNALQSGNSQESVTEQDSKDSTYSLSSTLTLSKADYEKHKVYACEVTHQGLSSPVTKSFNRGECAEAAAKEAAAKAAEAAAKEAAAKAMSYNLLGFLQRSSNFQSQKLLWQLNGRLEYCLKDRMNFDIPEEIKQLQQFQKEDAALTIYEMLQNIFAIFRQDSSSTGWNETIVENLLANVYHQINHLKTVLEEKLEKEDFTRGKLMSSLHLKRYYGRILHYLKAKEYSHCAWTIVRVEILRNFYFINRLTGYLRN heavy: not shown	2.34	182	–
IFA12 (antibody, human IgG2, kappa) light: DIQMTQSPSSVSASVGDRVTITCRASQGIYSWLAWYQQKPGKAPNLLIYTASTLQSGVPSRFSGSGSGTDFTLTISSLQPEDFATYYCQQANIFPLTFGGGTKVEIKRTVAAPSVFIFPPSDEQLKSGTASVVCLLNNFYPREAKVQWKVDNALQSGNSQESVTEQDSKDSTYSLSSTLTLSKADYEKHKVYACEVTHQGLSSPVTKSFNRGECPAPAMSYNLLGFLQRSSNFQCQKLLWQLNGRLEYCLKDRMNFDIPEEIKQLQQFQKEDAALTIYEMLQNIFAIFRQDSSSTGWNETIVENLLANVYHQINHLKTVLEEKLEKEDFTRGKLMSSLHLKRYYGRILHYLKAKEYSHCAWTIVRVEILRNFYFINRLTGYLRN heavy: not shown	3.64	105	–
IFA13 (antibody, human IgG2, kappa) light: DIQMTQSPSSVSASVGDRVTITCRASQGIYSWLAWYQQKPGKAPNLLIYTASTLQSGVPSRFSGSGSGTDFTLTISSLQPEDFATYYCQQANIFPLTFGGGTKVEIKRTVAAPSVFIFPPSDEQLKSGTASVVCLLNNFYPREAKVQWKVDNALQSGNSQESVTEQDSKDSTYSLSSTLTLSKADYEKHKVYACEVTHQGLSSPVTKSFNRGECPAPAMSYNLLGFLQRSSNFQSQKLLWQLNGRLEYCLKDRMNFDIPEEIKQLQQFQKEDAALTIYEMLQNIFAIFRQDSSSTGWNETIVENLLANVYHQINHLKTVLEEKLEKEDFTRGKLMSSLHLKRYYGRILHYLKAKEYSHCAWTIVRVEILRNFYFINRLTGYLRN heavy: not shown	0.7	192	–
